The source of these data is patent US20240124576A1.

The target in assay [1] is Monkey S-15-Fc (Acrobiosystems, Cat. No. SG5-C5253) (monkey). Briefly: flow cytometry of yeast-displayed scFv clone, 10 nM Monkey S-15-Fc, M&H Fc-APC. A general note: Flow cytometry measures light scatter and fluorescence of single cells or particles in a stream.
In assay [2] the target is murine S-15 Biotin (Acrobiosystems, Cat. No. SG5-M52H7, biotinylated) (murine). Briefly: flow cytometry of yeast-displayed scFv clone, 30 nM Murine S-15 Biotin, Streptavidin-PE.
Assay [3] concerns the target T1, biotinylated human Siglec-15 protein (Acrobiosystems, Cat. No. SG5-H82E9) (human) (UniProt Q6ZMC9).
T1 sequence (biotinylated, looked up): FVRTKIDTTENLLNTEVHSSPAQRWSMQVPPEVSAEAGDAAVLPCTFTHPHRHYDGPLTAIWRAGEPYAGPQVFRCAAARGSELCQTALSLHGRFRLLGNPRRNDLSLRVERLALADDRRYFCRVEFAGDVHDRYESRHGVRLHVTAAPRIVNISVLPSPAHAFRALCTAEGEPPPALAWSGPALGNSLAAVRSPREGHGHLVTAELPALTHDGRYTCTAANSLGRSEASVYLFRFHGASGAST
Briefly: flow cytometry of yeast-displayed scFv clone, 30 nM Human S-15 Biotin, Streptavidin-PE.

The next assay deals with Irrelevant antigen. Briefly: flow cytometry of yeast-displayed scFv clone, 30 nM irrelevant antigen, Streptavidin-PE.

B1: Ab0 (clone Y14C4), single-chain antibody displayed on yeast (scFv, part only; not given: linker, domain order, tag, anchor, V domains shown, not shown: another chain or arm of the molecule; large carriers; small tags and cut ends)
VH: EVQLLESGGGLVQPGGSLRLSCAASGFTFSSYAMSWVRQAPGKGLEWVSTISGGGGSTYYADSVKGRFTISRDNSKNTLYLQMNSLRAEDTAVYYCAKAIGSSWYSDAFDLWGQGTMVTVSS
VL: DIQMTQSPSSVSASVGDRVTITCRASQDISSWLAWYQQKPGKAPKLLIYVASSLQSGVPSRFSGSGSGTDFTLTISSLQPEDFATYYCQQSYSIPYTFGQGTKLEIK
As to B1, the Monkey S-15 binding signal in assay [1] came out at 588 MFI. For the same molecule, the Murine S-15 binding signal in assay [2] is 286 MFI. The molecule also returned a Human S-15 binding signal in assay [3] of 666 MFI. Moreover, the Irrelevant antigen-binding signal with Irrelevant antigen worked out at 12.5 MFI.
